Positions count from the first letter of the chain named.
T1: His-tagged extracellular domain (ECD) of human IGSF11 (VSIG3) (human, UniProt Q5DX21 23-241)
T1 construct: partly bought (SinoBiological 13094-H08H); also called IGSF11-HIS; HIS-IGSF11; not shown: HIS6 tag
T1 sequence: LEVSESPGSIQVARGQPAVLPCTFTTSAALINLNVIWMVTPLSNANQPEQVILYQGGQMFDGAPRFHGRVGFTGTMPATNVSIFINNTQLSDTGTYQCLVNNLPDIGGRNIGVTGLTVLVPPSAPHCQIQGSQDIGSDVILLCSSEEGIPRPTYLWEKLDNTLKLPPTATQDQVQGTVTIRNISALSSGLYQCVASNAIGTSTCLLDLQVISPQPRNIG

T2: IGSF11 ECD fused to murine-Fc (human; mouse, UniProt Q5DX21 23-241)
T2 construct: also called Fc-fusion IGSF11 ECD; full-length ECD of IGSF11; not shown: murine Fc
T2 sequence: T1 sequence

B1: A-008 (IgG1 format) (antibody, V domains shown)
VH: QLQLQESGPGLVKPSETLSLTCTVSGGSISSSGYYWGWIRQPPGKGLEWIGSIYYSGSTYYNPSLKSRVTISVDTSKNQFSLKLSSVTAADTAVYYCARHRVRFGEFDAFDIWGQGTMVTVSS
VL: QAVLTQPPSVSGAPGERVTLSCTGTSSNVGADFDVHWYQQFPGTAPRLLIFGSDNRPSGVPDRFSGSKSGTSASLAITGLQVEDEADYYCQAYDVRLSGWVFGGGTKLTVL
notes: human IgG1 format
B2: A-033 (IgG1 format) (antibody, V domains shown)
VH: QVQLVQSGAEVKKPGASVKVSCKASGYTFTSYGISWVRQAPGQGLEWMGWISAYNGNTNYAQKLQGRVTMTTDTSTSTAYMELRSLRSDDTAVYYCARDHSIVGATTFDYWGQGTLVTVSS
VL: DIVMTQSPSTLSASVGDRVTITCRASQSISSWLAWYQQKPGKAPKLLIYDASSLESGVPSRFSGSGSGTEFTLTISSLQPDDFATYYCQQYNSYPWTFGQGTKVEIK
notes: human IgG1 format
B3: A-001 (IgG1 format) (antibody, V domains shown)
VH: EVQLVESGGGLVKPGGSLRLSCAASGFTFSSYSMNWVRQAPGKGLEWVSSISSSSSYIYYADSVKGRFTISRDNAKNSLYLQMNSLRAEDTAVYYCVRSIIVQALGITSVFDIWGQGTMVTVSS
VL: AIRLTQSPSSLSASVGDRVTISCRASQIISNHLNWYQQKPGKAPKLLIYAASRLQTGVPSRFSGSGSETDYTLTISSLQPEDFATYYCQQSYSNPRTFGHGTKVEIK
notes: human IgG1 format
B4: A-023 (IgG1 format) (antibody, V domains shown)
VH: QVQLVQSGAEVKKPGSSVKVSCKASGGTFSSYAISWVRQAPGQGLEWMGGIIPIFGTANYAQKFQGRVTITADESTSTAYMELSSLRSEDTAVYYCARPKYSSGWFYYYGMDVWGQGTTVTVSS
VL: QSVLTQPPSVSAAPGQKVTISCSGSSSNIGNNYVSWYQQLPGTAPKLLIYDNNKRPSGIPDRFSGSKSGTSATLGITGLQTGDEADYYCGTWDSSLSVVFGGGTKLTVL
notes: human IgG1 format
B5: A-016 (IgG1 format) (antibody, V domains shown)
VH: QVQLQESGAEVKKPGASVKVSCKASGYTFTGYYMHWVRQAPGQGLEWMGGIIPIFGTANYAQKFQGRVTITADESTSTAYMELSSLRSEDTAVYYCAGAGMELTRSGAYYYYGMDVWGQGTTVTVSS
VL: QSALTQPASVSGSPGQSITISCTGTSSDIGGYTFVSWYQQHPGKAPKVMIHDVNNRPSGISNRFSGSKSGNTASLTISGLQAEDEADYYCSSVTSTNTYVFGTGTKVTVL
notes: human IgG1 format
B6: A-025 (IgG1 format) (antibody, V domains shown)
VH: QVQLVQSGAEVKKPGSSVKVSCKASGGTFSSYAISWVRQAPGQGLEWMGGIIPIFGTANYAQKFQGRVTITADESTSTAYMELTSLRSEDTAVYYCARGGWLRQNWFDPWGQGTLVTVSS
VL: SSELTQDPAVSVALGQTVRITCQGDSLRSYYASWYQQKPGQAPVLVIYGKNNRPSGIPDRFSGSSSGNTASLTITGAQAEDEADYYCNSRDSSGNHPRVFGGGTKLTVL
notes: human IgG1 format
B7: A-009 (IgG1 format) (antibody, V domains shown)
VH: B6 VH with T84S, G100R, W101G, L102F, R103G, Q104E, N105L, W106Y, P109Y
VL: ETTLTQSPATLSVSPGERATLSCRASQGVRSNIAWYQQKPGQAPRLLIYDSSTRATGIPARFSGSGSGTEFTLTISSLQSEDFAVYSCQQYKNWPRTFGQGTKVEIK
notes: human IgG1 format
B8: A-029 (IgG1 format) (antibody, V domains shown)
VH: QVQLVQSGAEVKKPGSSVKVSCKASGGTFSSYAISWVRQAPGQGLEWMGGIIPIFGTANYAQKFQGRVTITADESTGTAYMELSSLRSEDTAVYYCARSYYYYYGMDVWGQGTTVTVSS
VL: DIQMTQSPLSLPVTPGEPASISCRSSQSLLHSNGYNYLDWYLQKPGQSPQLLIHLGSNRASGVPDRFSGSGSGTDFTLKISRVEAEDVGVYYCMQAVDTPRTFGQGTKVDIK
notes: human IgG1 format
B9: A-003 (IgG1 format) (antibody, V domains shown)
VH: VQLVQSGAEVKKPGSSVKVSCKASGGTFSSYAISWVRQAPGQGLEWMGGIIPIFGTANYAQKFQGRVTITADESTSTAYMELSSLRSEDTAVYYCASPRIQLWAAGGFDYWGQGTLVTVSS
VL: QSALTQPASVSGSPGQSITISCTGTSSDVGGYNLVSWYQQHPGKAPKLMIYDVSNRPSGVSNRFSGSKSGNTASLTISGLQAEDEADYYCSSFTTSTTLVFGGGTKLTVL
notes: human IgG1 format
B10: C-002 (IgG1 format) (antibody, V domains shown)
VH: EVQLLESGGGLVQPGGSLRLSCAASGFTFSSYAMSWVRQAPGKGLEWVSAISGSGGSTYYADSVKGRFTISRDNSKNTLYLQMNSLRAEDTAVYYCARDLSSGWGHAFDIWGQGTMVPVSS
VL: ASVLTQPPSVSAAPGQKVTISCSGSSSNIGNNYVSWYQQLPGTAPKLLIYDNNKRPSGIPDRFSGSKSGTSATLGITGLQAEDEADYYCLSYTTSEHHLVFGGGTKLTVL
notes: wildtype human IgG1 and kappa or lambda constant regions
B11: C-013 (IgG1 format) (antibody, V domains shown)
VH: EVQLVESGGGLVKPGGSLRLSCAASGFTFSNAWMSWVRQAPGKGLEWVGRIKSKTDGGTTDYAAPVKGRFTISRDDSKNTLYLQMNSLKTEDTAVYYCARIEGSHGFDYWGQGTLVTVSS
VL: SYELTQPPSVSVSPGQTASITCSGDKLGDKYASWYQQKPGQSPVLVIYQDSKRPSGIPERFSGSNSGNTATLTISGTQAEDEADYYCASYLHTPKQFVFGGGTKLTVL
notes: as for B10
B12: C-015 (IgG1 format) (antibody, V domains shown)
VH: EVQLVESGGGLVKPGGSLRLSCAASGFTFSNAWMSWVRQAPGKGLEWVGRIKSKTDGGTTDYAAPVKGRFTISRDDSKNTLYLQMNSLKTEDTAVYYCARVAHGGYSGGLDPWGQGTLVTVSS
VL: B11 VL with A88S, Y90T, L91G, H92T, T93A, P94H, K95T, Q96L, F97A
notes: as for B10
B13: C-018 (IgG1 format) (antibody, V domains shown)
VH: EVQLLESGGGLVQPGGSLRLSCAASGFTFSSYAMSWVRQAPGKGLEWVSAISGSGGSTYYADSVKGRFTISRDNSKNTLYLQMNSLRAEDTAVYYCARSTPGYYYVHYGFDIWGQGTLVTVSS
VL: B11 VL with A88Q, S89A, Y90W, L91S, H92T, T93S, P94T, K95H, Q96S, F97W
notes: as for B10
B14: C-009 (IgG1 format) (antibody, V domains shown)
VH: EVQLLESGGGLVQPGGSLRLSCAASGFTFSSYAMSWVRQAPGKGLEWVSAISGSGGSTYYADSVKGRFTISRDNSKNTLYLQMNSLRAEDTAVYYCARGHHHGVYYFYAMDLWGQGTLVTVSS
VL: B11 VL with A88Q, L91S, H92G, T93S, P94S, K95T, Q96L, F97H
notes: as for B10
B15: C-023 (IgG1 format) (antibody, V domains shown)
VH: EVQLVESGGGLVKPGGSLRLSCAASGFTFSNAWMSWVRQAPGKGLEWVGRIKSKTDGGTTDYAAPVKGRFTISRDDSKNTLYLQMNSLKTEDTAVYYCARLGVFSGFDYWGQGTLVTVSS
VL: B11 VL with A88H, S89T, Y90W, L91T, T93H, P94S, K95L, Q96A, F97V
notes: as for B10
B16: C-006 (IgG1 format) (antibody, V domains shown)
VH: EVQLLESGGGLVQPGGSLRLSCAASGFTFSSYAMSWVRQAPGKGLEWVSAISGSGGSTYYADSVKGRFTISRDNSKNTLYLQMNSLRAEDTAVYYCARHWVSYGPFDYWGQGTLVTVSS
VL: DIQMTQSPSSLSASVGDRVTITCRASQSISSYLNWYQQKPGKAPKLLIYAASSLQSGVPSRFSGSGSGTDFTLTISSLQPEDFATYYCQQSHQSPPITFGQGTKVEIK
notes: as for B10
B17: C-010 (IgG1 format) (antibody, V domains shown)
VH: B6 VH with T84S, G100Y, W101G, L102E, R103Y, Q104Y, N105P, W106A, P109V
VL: B11 VL with L91A, P94H, K95S, Q96T, F97W
notes: as for B10
B18: C-008 (IgG1 format) (antibody, V domains shown)
VH: EVQLLESGGGLVQPGGSLRLSCAASGFTFSSYAMSWVRQAPGKGLEWVSAISGSGGSTYYADSVKGRFTISRDNSKNTLYLQMNSLRAEDTAVYYCTTDNGHNRDWGQGTLVTVSS
VL: ASVLTQPPSVSAAPGQKVTISCSGSSSNIGNNYVSWYQQLPGTAPKLLIYDNNKRPSGIPDRFSGSKSGTSATLGITGLQAEDEADYYCGTWTRSSGVFGGGTKLTVL
notes: as for B10
B19: A-033 (scFv format) (scFv, V domains shown)
VH: B2 VH
VL: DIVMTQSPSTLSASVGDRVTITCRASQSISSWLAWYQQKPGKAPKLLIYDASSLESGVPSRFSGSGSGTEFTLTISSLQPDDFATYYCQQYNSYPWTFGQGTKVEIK
notes: scFv
B20: A-034 (scFv format) (scFv, V domains shown)
VH: QMQLVQSGGGLVKPGGSLRLSCAASGFTFSSYTMNWVRQAPGKGLEWVSSISSIGTYIYYADSVKGRFTISRDNAKNSLYLQMNSLRAEDTAVYYCARVLLSGSYYGYFDSWGQGTLVTVSS
VL: QSVLTQPPSVSGAPGQRVTISCTGSSSNIGAGYDVHWYQQLPGTAPKLFIYGNSNRPSGVPDRFSGSKSGTSASLAITGLQAEDEADYYCQSYDSSLSGYVFGTGTKVTVL
notes: scFv
B21: A-035 (scFv format) (scFv, V domains shown)
VH: QVQLVQSGAEVKKPGASVKVSCKASGYTFTGYYMHWVRQAPGQGLEWMGWINPNSGNTGYAQKFQGRVTMTRNTSISTAYMELSSLRSEDTAVYYCARGRLERGYWYFDLWGRGTLVTVSS
VL: NFMLTQPHSVSESPGRTVTISCTRSSGSITSNYVQWYQQRPGSAPTILIYEDKERPSEVPDRFSGSIDISSNSASLTISGLKTEDEADYYCQSYGGTSQGVLFGGGTKVTVL
notes: scFv
B22: A-004 (scFv format) (scFv, V domains shown)
VH: EVQLVESGGGLVKPGGSLRLSCAASGFTFSSYSMNWVRQAPGKGLEWVSSISSSSSYIYYADSVKGRFTISRDNAKNSLYLQMNSLRAEDTAVYYCARGQLLWFGESALIDAFDIWGQGTMVTVSS
VL: EIVLTQSPSSLSASVGDRVTITCRASQSISSYLNWYQLKPGKAPKLLIYAASILQSGVPSRFSGSGSGTDFTLTISSLQPEDFAAYYCQQSYSTPRTFGQGTKLEIK
notes: scFv
B23: A-027 (scFv format) (scFv, V domains shown)
VH: QVQLVQSGAEVKKPGSSVKVSCKASGGTFSSYAISWVRQAPGQGLEWMGGIIPIFGTANYAQKFQGRVTITADKSTSTAYMELSSLRSEDTAVYYCARARGSTWGYFDYWGQGTLVTVSS
VL: EIVLTQSPASLSLSPGERVTLSCRASQSVSNYLAWYQQKPGQAPRLLIYDASNRATGIPARFSGSGSGTDFTLTISSLEPEDFAVYYCQQRDNWPLTFGGGTKVEIK
notes: scFv
B24: A-029 (scFv format) (scFv, V domains shown)
VH: B8 VH
VL: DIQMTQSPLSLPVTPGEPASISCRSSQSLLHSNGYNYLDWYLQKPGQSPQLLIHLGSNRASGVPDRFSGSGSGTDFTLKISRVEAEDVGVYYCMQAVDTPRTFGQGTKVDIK
notes: scFv
B25: A-003 (scFv format) (scFv, V domains shown)
VH: B9 VH
VL: B9 VL
notes: scFv

molecular target: T1, His-tagged extracellular domain (ECD) …; assay: ELISA EC50 grade, IgG1

B1 and B2 fall in the same range of EC50: 0.02 to 0.05 nM for the first, 0.02 to 0.05 nM for the second.

First: B3
Second: B4
The EC50 of the first is lower: less than 0.02 nM for the first, 0.05 to 1 nM for the second. The first is the more potent here.

First: B5
Second: B6
The EC50 of the first is lower: less than 0.02 nM for the first, 0.05 to 1 nM for the second. The first is the more potent here.

B7 and B8 fall in the same range of EC50: 0.05 to 1 nM for the first, 0.05 to 1 nM for the second.

Binder B9 has an EC50 of 0.05 to 1 nM.

molecular target: T2, IGSF11 ECD fused to murine-Fc; assay: ELISA, IgG
Excerpt: Expi293 cells (ThermoFisher) were transiently transfected with DNA sequences encoding the applicable IGSF11 domain-mFc fusions according to the manufacturer's instructions, and cultured under conditions suitable to the IGSF11 domain fusion. Cell supernatants were harvested 5 days post transfection and the expressed Fc-protein purified via Protein A affinity chromatography (GE Healthcare). IGSF11 domain Fc-fusion proteins were re-buffered into PBS pH7.4. […] The surface was blocked with 2% (w/v) skim milk powder in PBST. After three wash cycles with PBST, a dilution series of IgG-format ABPs was transferred to the immobilized the Fc-fusion IGSF11 ECD or the IGSF11 domains and incubated for 1 h. After removing all unbound antibodies by 3 wash cycles with PBST, bound IgG ABPs were detected with a goat anti-human IgG antibody conjugated with horseradish peroxidase. After three wash cycles with PBST the ELISA was developed with TMB substrate.

B10 and B11 fall in the same range of EC50: 1 to 20 nM for the first, 1 to 20 nM for the second.

Compared with B12, B13 is lower in EC50: 20 to 100 nM for the first, 1 to 20 nM for the second. The second is the more potent here.

First: B14
Second: B15
The EC50 of the first is higher: 1 to 20 nM for the first, less than 1 nM for the second.

First: B16
Second: B17
The EC50 of the first is lower: 1 to 20 nM for the first, 20 to 100 nM for the second. The first is the more potent here.

Work on B18 yielded an EC50 of less than 1 nM.

molecular target: T3, Streptavidin (UniProt P22629 37-163, limits assumed); assay: ELISA, scFv
T3 construct: also called negative antigen; irrelevant antigen
T3 sequence (P22629 37-163 limits assumed): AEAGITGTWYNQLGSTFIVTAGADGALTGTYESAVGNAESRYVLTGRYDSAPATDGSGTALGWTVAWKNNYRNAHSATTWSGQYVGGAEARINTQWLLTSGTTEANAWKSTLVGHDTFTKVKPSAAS

B19: no binding (tested: <0.025 or <0.05 RFU).
B20: no binding (tested: <0.025 or <0.05 RFU).
B21: no binding (tested: <0.025 or <0.05 RFU).
B22: no binding (tested: <0.025 or <0.05 RFU).
B23: no binding (tested: <0.025 or <0.05 RFU).
B24: no binding (tested: <0.025 or <0.05 RFU).
B25: no binding (tested: <0.025 or <0.05 RFU).

— patent US20240010720A1 (IOMX THERAPEUTICS, published 2024)
